The results in this text go back to the supplement of paper PMC7877785.

This series is described as follows: self-splicing fitness, log relative to wild type (ln ratio); higher = more splicing; Tetrahymena group I intron in knt gene, E. coli kanamycin selection, DiMSum; sequences stand for … in CUCUCU…GGAGGGAAAAGUUAUCAGGCAUGCACCUGGUAGCUAGUCUUUAAACCAAUAGAUUGCAUCGGUUUAAAAGGCAAGACCGUCAAAUUGCGGGAAAGGGGUCAACAGCCGUUCAGUACCAAGUCUCAGGGGAAACUUUGAGAUGGCCUUGCAAAGGGUAUGGUAAUAAGCUGACGGACAUGGUCCUAACCACGCAGCCAAGUCCUAAGUCAACAGAUCUUCUGUUGAUAUGGAUGCAGUUCACAGACUAAAUGUCGGUCGGGGAAGAUGUAUUCUUCUCAUAAGAUAUAGUCGGACCUCUCCUUAAUGGGAGCUAGCGGAUGAAGUGAUGCAACACUGGAGCCGCUGGGAACUAAUUUGUAUGCGAAAGUAUAUUGAUUAGUUUUGGAGUACUCGUGGUCG
The method, boiled down:
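Six replicate transformations of E. coli BL21(DE3) with a pET-22b(+) library were grown overnight at 37°C or 30°C. The library randomised all eight P1ex-region intron nucleotides, the intron lying in the knt kanamycin-resistance gene, and plates were LB agar with or without 25 μg/mL kanamycin plus 100 μg/mL carbenicillin, 50 μM IPTG and 0.2% rhamnose. Pooled colonies were amplicon-sequenced on an Illumina HiSeq 2500, and fitness is the DiMSum error-weighted combination of wild-type-normalised replicate fold changes, kanamycin versus none.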

± gives the uncertainty stated by the source.

On to AGAUAGCAAUAUUACGGAAA, for which the “self-splicing fitness (ln)” value is, setting by setting: (30 °C) -3.51 ± 0.37; (37 °C) -2.34 ± 0.25.
In the same order, the values of GCCCAGCAAUAUUACGAUAC are -2.24 ± 0.086 and -0.313 ± 0.094.
Consider GAUAAGCAAUAUUACGUAUU, for which the “self-splicing fitness (ln)” value was -4.03 ± 0.37 (30 °C) and -1.78 ± 0.21 (37 °C).
The corresponding values for GGGCAGCAAUAUUACGUGCU are -3.46 ± 0.22 and -2.16 ± 0.25.
On to CACGAGCAAUAUUACGUAGG, for which the “self-splicing fitness (ln)” value (37 °C) is -1.83 ± 0.21.
As to CGAUAGCAAUAUUACGCGGU, the “self-splicing fitness (ln)” value was -3.13 ± 0.27 (30 °C) and -1.94 ± 0.19 (37 °C).
In the case of UUUCAGCAAUAUUACGUUCA, the “self-splicing fitness (ln)” value is -1.04 ± 0.13 (30 °C) and -0.407 ± 0.15 (37 °C).
With UGCCAGCAAUAUUACGGCGG, the “self-splicing fitness (ln)” value was -3.73 ± 0.18 (30 °C) and -1.48 ± 0.13 (37 °C).
The corresponding values for UAACAGCAAUAUUACGAAGG are -1.76 ± 0.083 and -1.78 ± 0.12.
In the same order, the values of UAGGAGCAAUAUUACGGCUG are -0.891 ± 0.16 and 0.65 ± 0.2.
Regarding CGAUAGCAAUAUUACGCUAU, the “self-splicing fitness (ln)” value (30 °C) is -2.82 ± 0.19.
As for GCUUAGCAAUAUUACGCUGA, the “self-splicing fitness (ln)” value is -2.77 ± 0.17 (30 °C) and -3.37 ± 0.26 (37 °C).
On to UAGCAGCAAUAUUACGCUAC, for which the “self-splicing fitness (ln)” value runs as follows: (30 °C) -2.76 ± 0.32; (37 °C) -2.13 ± 0.44.
On to CCGAAGCAAUAUUACGCAUC, for which the “self-splicing fitness (ln)” value (30 °C) was -4.21 ± 0.34.
In the case of GCCGAGCAAUAUUACGAUAA, the “self-splicing fitness (ln)” value by setting is: (30 °C) -2.07 ± 0.21; (37 °C) -2.08 ± 0.26.
The corresponding values for UUUAAGCAAUAUUACGGAGU are -3.04 ± 0.39 and -1.18 ± 0.43.
Turning to GCUCAGCAAUAUUACGUAUA, the “self-splicing fitness (ln)” value runs as follows: (30 °C) -1.73 ± 0.096; (37 °C) -0.338 ± 0.085.
In the same order, the values of CUCGAGCAAUAUUACGCAGU are -2.06 ± 0.12 and -2.83 ± 0.25.
The corresponding values for UAACAGCAAUAUUACGACCG are -0.596 ± 0.09 and -0.323 ± 0.11.
In the same order, the values of GAUCAGCAAUAUUACGCAGG are -3.3 ± 0.29 and -1.09 ± 0.12.
In the case of UUCAAGCAAUAUUACGUAUA, the “self-splicing fitness (ln)” value by setting is: (30 °C) -1.48 ± 0.1; (37 °C) -0.136 ± 0.096.
As to GCGUAGCAAUAUUACGUCGC, the “self-splicing fitness (ln)” value is, setting by setting: (30 °C) -2.62 ± 0.13; (37 °C) -1.84 ± 0.21.
Consider GUCAAGCAAUAUUACGACUA, for which the “self-splicing fitness (ln)” value is -3.5 ± 0.18 (30 °C) and -2.03 ± 0.12 (37 °C).
As to AACGAGCAAUAUUACGCAAU, the “self-splicing fitness (ln)” value reads like this: (30 °C) -4.26 ± 0.36; (37 °C) -2.45 ± 0.27.
In the same order, the values of CCCGAGCAAUAUUACGGCUU are -3.29 ± 0.17 and -2.71 ± 0.2.
The corresponding values for UGGAAGCAAUAUUACGCUUG are -3.54 ± 0.26 and -2.53 ± 0.29.
As for GUAGAGCAAUAUUACGAAGA, the “self-splicing fitness (ln)” value is -3.65 ± 0.29 (30 °C) and -2.22 ± 0.43 (37 °C).
Turning to CGCAAGCAAUAUUACGCUUC, the “self-splicing fitness (ln)” value (30 °C) is -3.18 ± 0.3.
On to CCGAAGCAAUAUUACGGAUA, for which, for the setting “37 °C”, the “self-splicing fitness (ln)” value was -1.18 ± 0.2.
As for UUAAAGCAAUAUUACGUAUG, the “self-splicing fitness (ln)” value (30 °C) was -0.495 ± 0.068 and the “self-splicing fitness (ln)” value (37 °C) was -0.0669 ± 0.097.
CCUGAGCAAUAUUACGAAGU: where the note is “37 °C”, the “self-splicing fitness (ln)” value is -0.825 ± 0.19.
Regarding UGCCAGCAAUAUUACGGUGG, the “self-splicing fitness (ln)” value is -3.29 ± 0.13 (30 °C) and -2.97 ± 0.21 (37 °C).
For the sequence UCGCAGCAAUAUUACGCUCA, the “self-splicing fitness (ln)” value reads like this: (30 °C) -1.37 ± 0.085; (37 °C) -0.529 ± 0.091.
Turning to UACCAGCAAUAUUACGUGAG, the “self-splicing fitness (ln)” value runs as follows: (30 °C) -2.27 ± 0.083; (37 °C) -1.56 ± 0.085.
The corresponding values for GGGGAGCAAUAUUACGGGGU are -3.23 ± 0.3 and -2.13 ± 0.43.
As for ACAGAGCAAUAUUACGUUCA, the “self-splicing fitness (ln)” value reads like this: (30 °C) -2.1 ± 0.14; (37 °C) -2.33 ± 0.2.
In the same order, the values of AGGGAGCAAUAUUACGACUU are -1.41 ± 0.18 and 0.0129 ± 0.18.
For the sequence AAUCAGCAAUAUUACGGCUC, the “self-splicing fitness (ln)” value (30 °C) was -0.84 ± 0.082 and the “self-splicing fitness (ln)” value (37 °C) is 0.535 ± 0.097.
With CCCCAGCAAUAUUACGCGGC, the “self-splicing fitness (ln)” value (30 °C) is -2.98 ± 0.16 and the “self-splicing fitness (ln)” value (37 °C) is -3.16 ± 0.4.
For UCCAAGCAAUAUUACGCGCG, the “self-splicing fitness (ln)” value runs as follows: (30 °C) -2.95 ± 0.17; (37 °C) -1.49 ± 0.23.
Turning to UUAGAGCAAUAUUACGUCUA, the “self-splicing fitness (ln)” value (30 °C) was -0.712 ± 0.071 and the “self-splicing fitness (ln)” value (37 °C) was -0.109 ± 0.11.
For ACAGAGCAAUAUUACGUGGC, the “self-splicing fitness (ln)” value by setting is: (30 °C) -3.8 ± 0.25; (37 °C) -2.31 ± 0.32.
Turning to AAGCAGCAAUAUUACGCACG, the “self-splicing fitness (ln)” value is -1.15 ± 0.079 (30 °C) and -0.574 ± 0.095 (37 °C).
Consider GCCGAGCAAUAUUACGCUCC, for which, for the setting “30 °C”, the “self-splicing fitness (ln)” value was -0.576 ± 0.44.
GAAAAGCAAUAUUACGCGAG: the “self-splicing fitness (ln)” value (30 °C) was -1.64 ± 0.058 and the “self-splicing fitness (ln)” value (37 °C) is -0.497 ± 0.068.
In the same order, the values of GCACAGCAAUAUUACGCUUU are -0.861 ± 0.055 and -0.0512 ± 0.068.
In the case of CGGCAGCAAUAUUACGCCCG, the “self-splicing fitness (ln)” value (30 °C) is -2.32 ± 0.47.
For UUUAAGCAAUAUUACGCCAG, the “self-splicing fitness (ln)” value runs as follows: (30 °C) -1.08 ± 0.15; (37 °C) -0.457 ± 0.2.
The corresponding values for AAUAAGCAAUAUUACGGAUA are -2.35 ± 0.14 and -1.68 ± 0.15.
As to CCAAAGCAAUAUUACGAUCC, the “self-splicing fitness (ln)” value (30 °C) is -3.73 ± 0.31.
For the sequence UCUAAGCAAUAUUACGCGGU, the “self-splicing fitness (ln)” value by setting is: (30 °C) -3.76 ± 0.29; (37 °C) -1.4 ± 0.2.
The corresponding values for UGUCAGCAAUAUUACGCCUA are -0.234 ± 0.12 and 0.77 ± 0.16.
In the same order, the values of CCUUAGCAAUAUUACGAUUG are -1.85 ± 0.098 and -0.965 ± 0.1.
The corresponding values for GGCAAGCAAUAUUACGUUCG are -0.0493 ± 0.065 and -0.196 ± 0.08.
With CAGAAGCAAUAUUACGUCCC, the “self-splicing fitness (ln)” value is -2.92 ± 0.3 (30 °C) and -1.49 ± 0.28 (37 °C).
For the sequence UCCUAGCAAUAUUACGGACC, for the setting “30 °C”, the “self-splicing fitness (ln)” value was -2.64 ± 0.27.
Regarding UCACAGCAAUAUUACGACAU, the “self-splicing fitness (ln)” value (30 °C) is -3.584 ± 0.02 and the “self-splicing fitness (ln)” value (37 °C) was -2.19 ± 0.034.
The corresponding values for GAAGAGCAAUAUUACGCCGG are -2.66 ± 0.18 and -2.5 ± 0.29.
The corresponding values for AUCAAGCAAUAUUACGAUCU are -1.37 ± 0.1 and -0.575 ± 0.12.
Take AUGAAGCAAUAUUACGAGCG: the “self-splicing fitness (ln)” value (30 °C) is 0.0672 ± 0.066 and the “self-splicing fitness (ln)” value (37 °C) stood at 0.405 ± 0.085.
Take AAGCAGCAAUAUUACGUACC: the “self-splicing fitness (ln)” value is, setting by setting: (30 °C) -1.17 ± 0.19; (37 °C) -0.569 ± 0.22.
The corresponding values for GAUGAGCAAUAUUACGACGC are -0.267 ± 0.15 and 0.408 ± 0.23.
On to UGAGAGCAAUAUUACGGCUG, for which the “self-splicing fitness (ln)” value is, setting by setting: (30 °C) -1.5 ± 0.15; (37 °C) -0.389 ± 0.26.
In the same order, the values of UUGUAGCAAUAUUACGUUAG are -2.36 ± 0.25 and -1.28 ± 0.21.
The corresponding values for AGACAGCAAUAUUACGAUUC are -1.12 ± 0.08 and -0.569 ± 0.11.
The corresponding values for CUUCAGCAAUAUUACGGAAA are -1.17 ± 0.18 and -1.16 ± 0.15.
On to AUAUAGCAAUAUUACGAGGU, for which the “self-splicing fitness (ln)” value (30 °C) was -3.66 ± 0.26 and the “self-splicing fitness (ln)” value (37 °C) was -1.44 ± 0.15.
In the same order, the values of UAGAAGCAAUAUUACGCGAC are -3.67 ± 0.32 and -2.08 ± 0.33.
The corresponding values for UUCCAGCAAUAUUACGGUGC are -1.9 ± 0.16 and -1.23 ± 0.18.
In the same order, the values of UGUUAGCAAUAUUACGUGUC are -3.15 ± 0.33 and -1.48 ± 0.28.
For UUGGAGCAAUAUUACGCAUG, the “self-splicing fitness (ln)” value is, setting by setting: (30 °C) -3.5 ± 0.26; (37 °C) -0.58 ± 0.13.
As to GACAAGCAAUAUUACGUCUC, the “self-splicing fitness (ln)” value is -4.15 ± 0.27 (30 °C) and -1.18 ± 0.19 (37 °C).
AACUAGCAAUAUUACGUCGC: the “self-splicing fitness (ln)” value is -2.63 ± 0.11 (30 °C) and -1.08 ± 0.14 (37 °C).
The corresponding values for UCUCAGCAAUAUUACGUACG are -2.45 ± 0.14 and -1.26 ± 0.13.
The corresponding values for UGGGAGCAAUAUUACGGCAG are -3.28 ± 0.21 and -1.34 ± 0.17.
The corresponding values for AGCAAGCAAUAUUACGAGUA are -1.67 ± 0.12 and -0.688 ± 0.12.
In the case of GCGGAGCAAUAUUACGACCU, the “self-splicing fitness (ln)” value by setting is: (30 °C) -0.927 ± 0.2; (37 °C) -1.02 ± 0.19.
The corresponding values for UGCCAGCAAUAUUACGAUAU are -4.12 ± 0.28 and -1.74 ± 0.16.
